Measurements from the DeepSol protein solubility set.

Experiment: soluble on expression in E. coli; label from the status in PepcDB or PDB records

| Sequence | soluble on expression in E. coli |
| --- | --- |
| MSLARSLNNQRSRLVALVVNAIGNPCEAEEQQLLVHRLQARQLLPIILCCADHSDRLQLMRLASTYQVDHVVVFSDMVSMQDAVDIFHTTKPIIVSFEPLENESVSSIRIDGAEAADEIIDKIVRDGKKRFAYLSGTNSSWIDKLRRKWFADALAKRGLAFEAQAFGDYSYDSGFKEAVLLLHRDKVDAIICGNDVMAIGARDAARRVLGKNTPDDIAIVGQDGIAMAAWDCNDLTTLSLDHVAFIDAVVELIERHDAEVEGPHSITLTCTARWGSEGHHHHHH | not soluble |
| MSLASVQDLGKVEQAAPAQKLTVTIALSLRDRDAAARYLQEVHTPSSPNYHKFLTPSEFRARYAPTEASLAKVAARLQAAGLSVKRIGSTLLQVSGPAATVQKAFGAEVHVFQNKSVVQGAAARYTAPVRASTPGIDLSDVQAVIGLDSRPHFRPHLRQLPSHLQASMDKSASAVTNGNAPGKWTVTDLARHYNITPLYNKGIHGQGATIGIVTLASFTPSDAFQYWSSIGLATDPNRLTVVDIDGGPGAPSDDGGSSETTLDVEQSGGIAPDAKIIVYQAPNTTQGFVDAFAKAIESNAADTLSVSWGEWEWFDQQSQAVNPVNGKSANVLQTYHDLFLQAALQGQTMFAASGDSGAYDVNRAAPLPQYNKVLSVDSPANQQFITAAGATTVPTTLTFHPNGKEMKIKIPTERAWGWDYLNGLCKALGKDPVACGTFPVGDGGGVSSFIGRPFYQNWLPGMQNSPAGQQLVDSSQNPPQVIATLPANFKGRNVPDISMNGDPETGYVVYYTSSKTGFSIQTNNGGTSFVAPQLAGITALLNQSLGGRLGLLNFSLYGLVATGHGYQGFGRHGAPLRDITAGNNWGYNAHRGYDQATGVGAPDVANLDAALRRYFWFEGHHHHHH | not soluble |
| MSLASYLDFEKNIQQIDEDIINAQIKGDTEAVSILKKNLEKEISKTYKNLSDFQRLQLARHPDRPYALDYIELILNDAHEIHGDRAFRDDPAIVCFMGYLGEKKIIVIGEQKGRGTKDKIARNFGMPHPEGYRKALRVAGLAEKFQIPILFLIDTPGAYPGIGAEERGQSEAIARNLYELSDLKIPTIAIVIGEGGSGGALAIGVADKLAMMKNSVFSVISPEGCAAILWNDPAKSEAATKAMKVTADDLKSQGLIDDVIDEPTNGAHRNKEAAAVAIADYVKKSLNELENIDVRELSANRMQKILKLGAYQEAEGHHHHHH | soluble |
| MSLATTHLDVCAVVPAAGFGRRMQTECPKQYLSIGNQTILEHSVHALLAHPRVKRVVIAISPGDSRFAQLPLANHPQITVVDGGDERADSVLAGLKAAGDAQWVLVHDAARPCLHQDDLARLLALSETSRTGGILAAPVRDTMKRAEPGKNAIAHTVDRNGLWHALTPQFFPRELLHDCLTRALNEGATITDEASALEYCGFHPQLVEGRADNIKVTRPEDLALAEFYLTRTIHQENT | soluble |
| MSLAVLDSGGGSALLKMGRQCEVGSQAYDSSTVSSNLQKAETNGPVGLAGTAEQEQQYDVHGNVISAAVYQKFHVYGPEDMVFDGDAGGLTIPGAGAFWGTLFTSDLQRLYKDTVSFQYNALGTYLNINFFDSSGGFLGHIQAGAVSAVVGVGGGSGSWHNWEVAEGHHHHHH | soluble |
| MSLCGIAGFFSRRPVNPAVPQAMLDELHRRGPDDASRLLLDSELNPADGGAIHNAMLHARLAIVDPRPVANQPMASDDGQVWICYNGEVYDWEIGKAELEAGGAVFRTHSDTEFILRGYQAWGIEGLLERLRGMFAFAILDKRCEKVHLARDRMGEKPLLYSLQDGDFAYGSLVRAVLPFLPADKRAFSPAAIDAYLAHRYIPSPATVFSHINRLENGYRLEFDLNTRQLTKQRYWQPKAESGDWLPELDRAVAMRTVADRPLGVLLSGGIDSTVIASRLAIQQLTQFSSFTAAFPGSTLDESGDAADSARRMGLPNVRVDMPENLAADFERIVADLDQPFADPSSFPTWYLAREVTKHVKVVLVGDGGDELLAGYKRMGKHLRTRWRQNIRLPLPIKPQLDSKRGKLATELAMDWKSAYSLRFSGFTPGQRSFLQGGRKLEKLCHWRAPDDIGPEPGDGSPGLHQLLELDFANYLPDYILQKSDLCTMAHGLEGRAPLLDHGFYQRLLSTSAAERYTRPAKLIFRRAIHPALPTDFFQRKKRGFNPPLSGWLKTSLAPRFDGLGSRLAEASGGQLDAGAVDAFARAYRDGAGHLAEQMLQLLILDESLTQLRRLCRELGEGHHHHHH | soluble |
| MSLCGIVAFYYPEINDKQAAIGKMMATIQHRGPSSDGMYTNDKVALGFRRLSIIDLRCGSQPIYNEDRSRAIIFNGEIYNFKPLREELIKAGHTFSTKADTEVILHGYEEWGMDGILKRVRGMFAFIIWDDNTQTMYGARDFFGIKPMYYQDVDGHLLVGSELKSFLAFPHFKKELNTEAVKPYLMNQYNDLKETFFKGVYRFQPGHWFEYKDGKMKTHQYWDAEYKDNNLSFEETVKKINEDLKETVDLYRNADVKVGAFLSEGVDSSFLTALLDPDEVFSIGFDDNTYDEASKAKALADINGWHFYADKVYSEEAMRDFPEMQYHMDEPDANPSIIPLWYLCKLARKHVTVALSGEGADELFAGYVNYGMHTHNNVIKVFTDKLKKLPKGKRVKLAHKIKKMPNFPGKVHLYTNLAEPSEFYVGQSVIYDMDYPTIFTSKDANAVLQPSYRNKLTVNGNYQEDFKKVKDLDNVKQMQYIDLHHFMLNDIEQKADKISMAHSLELRVPYLDVKIAKLANSIPSKYLVNKYDTKYALRKASEQVLPDEWAKRPKLGFPTPIKQWLQEERFYKQVRDLFSEDFVNDIFEQKKILDLLDENYNGDGSHRRQIWVIYTFLVWYKLFFVDYEEGHHHHHH | soluble |
| MSLDAAQAMSKIPVIGKIVKAITFIEIKEEKDQSSIDVKTPALSGLSNKELENSINEKYLKESQQLYKEFIQSTSKNKKGHLSIYSDYETVTDTPDLLSIRRNIETTQASSYTQSRYITIDKKNDILLTLKSLFKDERYIKVISQNIKEQMKQQMKEDPNKIYWLTDEDAEPFKTILPDQTFYITEDHKLVISFDEYEVAPGYMGVTEFTIPTGVISNLLVGERYIREGHHHHHH | soluble |
| MSLDANVRTVKWNGIPLHEASSAIVKEETNGDFYLTVRYPITDSGIYQLIKEDMLIKSPVPVLGAQLFRIKKPIENDDSMDITAYHVSDDIMKRSITPVSVVGQGCAMALSQMVQNAKTGLGDFSFTSDIMDSRTFNTTETETLYSVLMDGKHSIVGTWEGELVRDNFALSIKRSRGADRGVVITTHKNLKSYQRTKNSQGVVTRIHARSTFKPDGAEDEVTLRVSVDSPLINSYPYINEKEYENNNAETVEDLRKWAEAKFTNEGIDKVSDAIEIEAYELDGQVVNLGDTVNLKSRKHSADLYKKAIAYEFNALTEEYISITFDDKPGVGGSGVSSGLSNVADAILVASATAQDVAVQRAVKNANAAFDAEFGKTKTKINDDIEIAKAKVESFKSELSNRMDNQLLPLATEAKNLASQAQADLTRKEIELRAELNREGHHHHHH | not soluble |
| MSLDASDDSLIGRITEVRAGRFAARLLSDEEGFRNEVSLGDEVQHPGQVGTYVSIRNGTFRILALVREVSGGAAGSAAGSAMQLVPLGEFNDKGAFSRGVRRYPVPGAEVHAASPQEINAVFARTRNLRFNPGYLPNHPATGVYLDPSALCSRHFAILGQSGAGKSWTVASLLQRMLASAPRAHIILLDLHGEYCWRGADGVLHSTFPPMATRAMDARELEIPYWLMSFAELVDLLIERDDPAASIQTAFLRETVFELKRRSARELGLEGVSIDAPVYFSLQEVYERFKEANEHRTDFGKTKGPLFGQFDDFLLKLGSRLHDVRYDFLLNPARRTRSESLPDLLRDFVGLGEPRCQISVIDLSPVPFDVRPTVSAQIGRLAFEFNYWNLDRREFPILLVCEEAHTYIPRERATQYEGTRKSMERIAKEGRKYGVGLAVVSQRPHELSETVLSQCGSYICLRISNPDDQAYVRKLVPEGEADLVDVLTALGRGEALILGEATPLPVRCQIFRPDEGHHHHHH | not soluble |
| MSLDDGTGLFTIGQLARRTGLSVRTIRYWSDEGALPPVTRSSGGYRLYDAGSVARLELIRTLRELGLGLDDVREVLAGETTVAEVAATHVTALDAQIRALKVTRAVLSTVARRGSTAEEMTLMNKLARLSAAERRRILEEFADEMFRGLDTADPVIRERMRNTAVDLPDEPTPEQVDAWVELVELLQDPEFRAQMRAAAEFNAADRGHDSPAGASLWFVRRLVQLAADARQRGIAPEAPEAEEVLRELLGEADGAADRAAVLERLEATSNDRVARYRELLAVVKGGGPLPAHREEFGWVVAALRAREGHHHHHH | soluble |
| MSLDFSEPLLGFEPRDTEIGRRLEVWKAMQALTGPKNLLSLSPDPEMNSSSLLSTLSPAAWGRAEESVVRTKRMVGPVEVKEEENFFCGRPEKSHAKLVFVSTSGGSLWNLQAIHSMCRIEQEQIRSHISFGALCQRSAANECCPSWSLGNYLAVLSNRSSCQDTTQADTDRTLALLRFCATFYHRGVLVPACVGSSQDKPPFCAQVPAKCTGSNVVYEFLHYLLDRDFLSPQTADYQVPSLKFALLFLPIIKTSSLLDIYLDGLGDPIKVSDNYTSISGMDLGLKPRLLKYYLAEDTEGHHHHHH | not soluble |
| MSLDGKPLADKMRPTTLNNYMGQNKVLGENTMLRNLLQANDIPSIILWGPPGCGKTTLAHIIAKNAQKSSSRFVTLSATSASTSDVREFIKQAQNEQRLFKRKTILFVDEIHRFNKMQQDTFLPHVECGTITLIGATTENPSFQVNTALLSRCRVIVLEKLSVEAMETILMRAVDSLGLKVLKDGEQLVGSSSDVSETSVYVEEKALTTLAHLCDGDARTGLNGLQLSVQASLAAEKDPIKQGIVIKEEHIKEGLQRSHILYDRAGEEHYNCISALHKSMRGSDKNASLYWLGRMLEGGEDPLYVARRLVRFASEDIGLADPQALTQAVSTYQACHFIGMPECDVILAQCVMYMACAPKSVTVYSAYNKVKNCLKNHKGPLPPVPLHLRNAPTKLMKGLGYGKGYKYNPNFSEPVEQDYMPEEMKGVTEGHHHHHH | not soluble |
| MSLDGQGEAVVEGHEAALLLSESRASVDPELRSAIATLPESMRRVALYHFGWQHADGTPAAGNAGKAIRPALVLTAAAALGGPGARAAAVRAAAAVELVHNFTLLHDDVMDRDATRRHRPTAWTVFGDADAILAGDALQALALRLFAADPHPASAAAATRLADCVMELCEGQHADTAMERRPPDEVTLDETLVMAEAKTGALLGCACAVGALYAGAATEDVEALDAFGREAGMAFQLIDDVIGIWGDPRHTGKPAGADLAARKKSLPVVAALTSGTPAAAELAELYTGPYDENKEDLERTALAVERAGGRDWAQAQAADRMARAMQELARAVPEPEAAGGLLALAEFVTRRSTEGHHHHHH | soluble |
| MSLDIKQLKFLIALDQTRHFGQAAALCHITQPTLSMRLRNLEDELDLVLVKRGQRFEGFTEAGERILAWARTLLAAHDGLQAEAASCRGQVVGSLRLGTVPLASFNPMHLLLPLREKYPELHFQLSSLSSEQVIDGLSRNQLDLGICYLDQVNTSFFEVIELGTTTMGLLHDTRHFQFTSDRLRWDELGDIPLGLLSKGMHYRQSLDLSFRSRGLEPNAVLESDSSFQLIQAINTGICCAIMPLDCGLEDLSEHLRIVPVADAAIHSPVGLLLRRSEPRSAIAEQCFAEARGLFQASEGHHHHHH | soluble |
| MSLDIQSLDIQCEELSDARWAELLPLLQQCQVVRLDDCGLTEARCKDISSALRVNPALAELNLRSNELGDVGVHCVLQGLQTPSCKIQKLSLQNCCLTGAGCGVLSSTLRTLPTLQELHLSDNLLGDAGLQLLCEGLLDPQCRLEKLQLEYCSLSAASCEPLASVLRAKPDFKELTVSNNDINEAGVRVLCQGLKDSPCQLEALKLESCGVTSDNCRDLCGIVASKASLRELALGSNKLGDVGMAELCPGLLHPSSRLRTLWIWECGITAKGCGDLCRVLRAKESLKELSLAGNELGDEGARLLCETLLEPGCQLESLWVKSCSFTAACCSHFSSVLAQNRFLLELQISNNRLEDAGVRELCQGLGQPGSVLRVLWLADCDVSDSSCSSLAATLLANHSLRELDLSNNCLGDAGILQLVESVRQPGCLLEQLVLYDIYWSEEMEDRLQALEKDKPSLRVIS | soluble |
